Assay: soluble on expression in E. coli; label from the status in PepcDB or PDB records

| Sequence | soluble on expression in E. coli |
| --- | --- |
| MRKPTDTLPVNLQRRRLLCAAGALLLSPLAHAGAQREETLADDVASVMRSSVGSVNPPRLVFDNPKEGERWLSAMSARLARFVPEEEERRRLLVNIQYESSRAGLDTQIVLGLIEVESAFRQYAISGVGARGLMQVMPFWKNYIGKPAHNLFDIRTNLRYGCTILRHYRNLEKGNIVRALARFNGSLGSNKYPNAVLGAWRNRWQWR | not soluble |
| MSLKILLLVAISCLFVACSNDKEKQQNDVNLSTEASINQSDDMNFKLNLIDGGSISVKKENAVLNFNDEDKVTLFVFFTTWCTPCIAEIPHLNKLQEKYNNDFNIVGVLLEDKSNDEIQKFIEQHKISYKVANGENNYLLAKALGGVNGIPTMFLYNKHSKLINQYLGLIPEEMLEIDIQKAILEGGSHHHHHH | soluble |
| MPIYEYACHACGLEKEHLQKMSDAPIANCPACGSSDYVKKVSAAGFQLKGTGWYVTDFRNKNTRSDSKPKEESGKEAADTDKAAATTTTDSTTATATTASTSTTAPTVSSVD | not soluble |
| MGSDKIHHHHHHMAENWKNCFEEELICPICLHVFVEPVQLPCKHNFCRGCIGEAWAKDSGLVRCPECNQAYNQKPGLEKNLKLTNIVEKFNALHVEKPPAALHCVFCRRGPPLPAQKVCLRCEAPCCQSHVQTHLQQPSTARGHLLVEADDVRAWSCPQHNAYRLYHCEAEQVAVCQYCCYYSGAHQGHSVCDVEIRRNEIRKMLMKQQDRLEEREQDIEDQLYKLESDKRLVEEKVNQLKEEVRLQYEKLHQLLDEDLRQTVEVLDKAQAKFCSENAAQALHLGERMQEAKKLLGSLQLLFDKTEDVSFMKNTKSVKILMDRTQTCTSSSLSPTKIGHLNSKLFLNEVAKKEKQLRKMLEGPFSTPVPFLQSVPLYPCGVSSSGAEKRKHSTAFPEASFLETSSGPVGGQYGAAGTASGEGQSGQPLGPCSSTQHLVALPGGAQPVHSSPVFPPSQYPNGSAAQQPMLPQYGGRKILVCSVDNCYCSSVANHGGHQPYPRSGHFPWTVPSQEYSHPLPPTPSVPQSLPSLAVRDWLDASQQPGHQDFYRVYGQPSTKHYVTS | not soluble |
| MSTNPGPAEGANQVMAQEHSAGAVQFTAHNVRLDDGTLTIPESSRTLDESSWFISARGILETVFPGDKSHLRLADVGCLEGGYAVGFARMGFQVLGIEVRELNMAACNYIKSKTNLPNLRFVHDNALNIANHGLFDTVFCCGLFYHLENPKQYLETLSSVTNKLLILQTHFSIINRSDKWLRLPTTARQLTDRLLRRPAPVKFMLSAPTEHEGLPGRWFTEFSDDRSFGQRDTAKWASWDNRRSFWIQREHLLQAIKDVGVDLVMEEYDNLEPSIAESLLGGSYAANLRGTFIGIKTR | soluble |
| QSPAEIASFSPRPSLADSKAVLNQAVADLSVAHSILHQVHWYMRGRGFMIWHPKMDEYMEEIDGYLDEMSERLITLGGAPFSTLKEFSENSQLKEVLGDYNVTIEEQLARVVEVFRYLAALFQKGFDVSDEEGDSVTNDIFNVAKASIEKHIWMLQAELGQAPKL | soluble |
| ATFTSLANQAASREDYEFHRTVLLASGGLLLSGDPLPEITPFASKTLAKLMLRQRRSQESAKFTALSLSHAFLKLTDKNDLHCLFNYANHNATEFTLTADQPVDWYDYWTGEKLNQDPCQLLLVSVDRGLNAKAIVTA | not soluble |
| MGSDKIHHHHHHMLKRLLDYNEGEEFDLVLMVKNSELRQDKRGKHYLLMQLADSSGSIRANYWQAKAEDASRFNAGTVVEASGMIEDYHNHDQIKLFSIHPVSPDDQADLSQLVATAPEKPAEMEKEIKDFVAQIDNKNWHDLVDFLLKKWSSRFFAYPAGKSNHHAYKGGLAFHTLTMLKDARGLADNYPAVNRSLLYAGCILHDMGKVLELSGPVATQYTAEGNLVGHLVLIDEQLMLAAQELKIDLASEDLLLLRHMVLSHHGRYEYGSPKLPALLEAELLHRIDDLDAAVNAITTVNCPRPSRGNSPRR | not soluble |
| MAHHHHHHMSTYDKSDQIGYDETDHTLNAELEEMMARTPPEVQRHLQHRIHDGILQRMKEETTRKCITFIQKYEQCVNSQKPYNMKLCYPHRDAMNGCAQEVNREENYQRYRIMYLRGELLKYHEKRTAGKMEAFKVRAPDAIRAWKHDYAPKYMHIMEDLGVAPLGTAAGTAEESTNSK | not soluble |
| MGSDKIHHHHHHMKLGFITSILDSWTYEEMMDFASGQGFECVEVACWPQEKAERRYAGVSHIDAERVNQDDAYAEHIVEYAKKSGVEISALAYYPNVMVADKEKSATAVEHLKQVILASKKLGVGMVTTFIGRDQTKNIQENLELVKEIWPPIIKLAEECDVKIAIENCPMLFGKEQWPGGQNLMTTPPIWREVFRILDSDHLGINYDPSHFIWQMIDYIRPLYEFKDKIFHVHYKDIKIYKDKLESCGIMAYPLEYMSPKIPGLGDVDWGKYVSALTDIGYDGYTCIEIEDKAFEDFKEKVENSLIISKRYLEQYVI | not soluble |
| MLKKRFYILLFFCLLLGGNVNSSTVDKGDNNAPFENKRTETDYLPIADPFVMLYNNKYYAYGTGGTVNEGFACFSSDDLKNWKRERQALSADDSYGKWGFWAPEVYYIQSKKKFYMFYSVEEHICVATSDSPVGPFRQESKQPIWEEKSIDTSLFIDDDGTPYLYFVRFTDGNVIWVAQMTDDLMKIKKETLSECIKAEEPWELLQAKVAEGPSVLKKKGMYYLIYSANHYQNKGYGVGYATSKSPMGPWTKYDKNPLLQGDESTGLVGTGHGAPFQCKDGSWKYIFHAHWNKEKIHPRTSYFKDFTISKQGVVSITGKVIKPKVIK | not soluble |
| MVRQPAVAGQFYTDDPRRLREELGHLIRPVPAPRRVTGVIAPHAGYMYSGAIAGAVYGSIVIPRTVVILGPNHHGLGAAASLYPDGTWLSPLGEVPIEQRLSSLVLEHVPQAEPDVIAHRFEHSLEVQVPFLRYLNSDVAIVPMCLGGGGYGWCRQVGEGLARAIAAYGEEVLIVASSDMTHYESAESARLKDEAALSCVLALDAEGLLKVCRQRGITMCGVIPSTVMLVAARELGASRAELIRYGTSGDVTGDNRQVVAYAAVAVYLEHHHHHH | not soluble |
| MSLDALTTLPIKKHTALLNRFPETRFVTQLAKKRASWIVFGHYLTPAQFEDMDFFTNRFNAILDMWKVGRYEVALMDGELTSEHETILKALELDYARIQDVPDLTKPGLIVLDMDSTAIQIECIDEIAKLAGVGEEVAEVTERAMQGELDFEQSLRLRVSKLKDAPEQILSQVRETLPLMPELPELVATLHAFGWKVAIASGGFTYFSDYLKEQLSLDYAQSNTLEIVSGKLTGQVLGEVVSAQTKADILLTLAQQYDVEIHNTVAVGDGANDLVMMAAAGLGVAYHAKPKVEAKAQTAVRFAGLGGVVCILSAALVAQQKLSWKSKEGHHHHHH | soluble |
| MQFHIDDMTCGGCASTVKKTILTLDANATVRTDPATRLVDVETSLSAEQIAAALQKAGFPPRER | not soluble |
| MSLERAKNSDLLRESLTTEELLLISNFAKKKGADSVFFKIIEKLDLKFRLSSFGLEVKNFLMKSKLTGDELTKLTPEILKNKTYENKKFRAYNIHIPSAKTFIGRANSYLDYISKIKDKLVGLGFQEFDGPLVETEFFNNDALFMPQFHPSRDIKDVYYISDPSMQESLPEPYFSNVKLAHETGYATGSRGWRYSFSEDLSKRLVLRTHGTVLSAKQLINAKNPSRYFGVIRCFRYDQVDATHGVDFYQTEGIVIEDGVSIKTLLGLLEIFAKELAGATEIKYVPAYFPFTEPSIEIHVKHPVLGWFELGGSGIFRPEVTKPLGIDLPVIAWGIGIDRMALMHLGLNDLRDLFTYDIGDVILRRGKIDAKVRNEGHHHHHH | not soluble |
| MPEQLNTRVEDCFQLAESFFKRPFKRPVVSLKLRGQKAGVAHLHENLLRFNPQLYRENTEDFLKQTVAHEVAHLIAHQLFGERIQPHGEEWQLIMRGVYELPPNRCHTYDVKRRSVTRYIYRCPCAESDFPFSAQRHKLVAQGRRYLCRRCRQTLVYSGETRVELEHHHHHH | not soluble |
| MSSSNENAGKHSYLRSLISGLSSQGICAYVYASSGYGESSTDIVFTGKAFIAEAGEIVEEMERFRYEERMIISDIDVSRIQTERLINSSFKAAVTFHTHDEKFNQLPFKLRSRQESLPMTRRVLEHHHHHH | soluble |
| MGSDKIHHHHHHMFLKNAWYVAAWDHEVRTDLQQIMVLGEKICMFRTQSGDLVALEDACPHRKLPLSKGRIKGDTVECGYHGLTFNCAGTCVWAPGASGIPSNARVHAYPLAEKYGLIWIWMGNPALADPSDIFEIENYGNPDWGINRGAAMELDCNYLLMCDNLLDPTHVAWVHQSSFAAEATKDTPLHVTKTDTGIIVHRWMMDHDPAPFYKKVVEFDGNCDRLQHYEVRYPSHALVRAVFTPAGTGGPDGPLHANTFIMDSYNFMTPVSEGKTRYYWFQLRNIRPDDEALSQMMSDDVHHAFEEDRAVLNEVQIGMSSKTSPHIDLPIDGGQLRFRRQLQAMINEEAQVDAQMAE | not soluble |
| SGNRGVVYLGSGKVEVQKIDYPKMQDPRGKKIEHGVILKVVSTNICGSDQHMVRGRTTAQVGLVLGHEITGEVIEKGRDVENLQIGDLVSVPFNVACGRCRSCKEMHTGVCLTVNPARAGGAYGYVDMGDWTGGQAEYVLVPYADFNLLKLPDRDKAMEKIRDLTCLSDILPTGYHGAVTAGVGPGSTVYVAGAGPVGLAAAASARLLGAAVVIVGDLNPARLAHAKAQGFEIADLSLDTPLHEQIAALLGEPEVDCAVDAVGFEARGHGHEGAKHEAPATVLNSLMQVTRVAGKIGIPGLYVTEDPGAVDAAAKIGSLSIRFGLGWAKSHSFHTGQTPVMKYNRALMQAIMWDRINIAEVVGVQVISLDDAPRGYGEFDAGVPKKFVIDPHKTFSAA | soluble |
| MSNEDSLPPFTLFGLDDVENYGLVTEADNSLPLDIHNQVFQLVEKGNQSFKESRFEEAISSYSKANSIKPLDPIVLGNRSAAYIRFGQYLKQRSASISEYKPLNGFDMSMLGELALKDADKLMSLQSSLVKSYITKACALMLLERYEVARDTILSGLQIDPFSGPLRSNLQELEKVMPNSMRKTHGMAERSDDFDCTVCLKLLYEPATTPCGHTFCRSCLFQSMDRGNKCPLCRTVIFMTPRTCAVSVTLNNIIEKNFPEEYAERKSEQDTLVHLGNESMPLFVMDVIIPCQKLSLHIFEPRYRLMVRRIMEGNHRMGMVALDSATGSPVDVACEVEITECDPLPDGRFVLELESHRRCRIVKAWDQDGYRVAEVEWVKDIPPQSEQGKADLRELTTSAASFARSWLDRAKEAARQGDRRRLEILLNVESMIPTPQDPERFSFWLATLTDRRPSERLELLRLQDTGEVLDYRLVQIARQISLFHQSLSFDC | not soluble |
| MLEALRKCPTMFAVTSDGSSTMAKMDNSARQLALFVATTNGEFYQSNFGEEALETIKYQLGKDAGWGLFFDVLRNAFNGNCVSILARSEDTAHILCGKEDCSEKSALCFPIQKTEEDTSATILKCLVDANAVYANPKEEKNKVQKIMEELEKAKLQVRMLEEEVRVLCENNIWRRKQDTKNTLKIGKLRDNISRLSNQINPKAKEVSETSVGETSGPHAEDSYIPGRKLLRLVFEKKECKEYDVELLRLIKSRWPKTEGSKACNASNCLIDPYTESELPERLSRMSKKHKMVWGTLNGLDDWDYNVFELQAAIDGDDINCKNDQSGCGALFITMYALVVKYGFLRKFEINERIFLNWLSAVEGGYHANPYHNSMHAADVLHITHYLLSKGGLAELCKLNDRQVLAALFAAAIHDYNHPGINNNFSILTQTYNATLYNDRSVLENMHVASVFELMRNPALNILACFSEEHWRDFRNTVIDMVLATDMSLHEKYMTQFKRRLSEKRPFTEDCDQNLALAMALKLADISNCCRPLPLYLKWSERVSDEFYTQGDRERSLGMSCSPFMDRQTPMIAEGQTSFINYIFIPFLEVMAEFLPSMGFTLGLAAVCKSHRLVGNTGQGT | not soluble |

From the DeepSol protein solubility set
